Source: patent US10543259

T1: recombinant human IGFBP-4, 125I-labeled, P22692
T1 chain: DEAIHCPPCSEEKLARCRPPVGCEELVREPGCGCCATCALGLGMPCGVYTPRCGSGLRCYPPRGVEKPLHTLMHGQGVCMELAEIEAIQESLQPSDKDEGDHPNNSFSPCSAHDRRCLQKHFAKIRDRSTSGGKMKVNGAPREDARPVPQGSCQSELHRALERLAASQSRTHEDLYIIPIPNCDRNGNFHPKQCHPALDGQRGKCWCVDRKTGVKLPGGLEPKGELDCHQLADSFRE

B1: recombinant wild-type human PAPP-A2 (pregnancy-associated plasma protein-A2) (protein)
chain: PPEESNQNGGEGSYREAETFNSQVGLPILYFSGRRERLLLRPEVLAEIPREAFTVEAWVKPEGGQNNPAIIAGVFDNCSHTVSDKGWALGIRSGKDKGKRDARFFFSLCTDRVKKATILISHSRYQPGTWTHVAATYDGRHMALYVDGTQVASSLDQSGPLNSPFMASCRSLLLGGDSSEDGHYFRGHLGTLVFWSTALPQSHFQHSSQHSSGEEEATDLVLTASFEPVNTEWVPFRDEKYPRLEVLQGFEPEPEILSPLQPPLCGQTVCDNVELISQYNGYWPLRGEKVIRYQVVNICDDEGLNPIVSEEQIRLQHEALNEAFSRYNISWQLSVHQVHNSTLRHRVVLVNCEPSKIGNDHCDPECEHPLTGYDGGDCRLQGRCYSWNRRDGLCHVECNNMLNDFDDGDCCDPQVADVRKTCFDPDSPKRAYMSVKELKEALQLNSTHFLNIYFASSVREDLAGAATWPWDKDAVTHLGGIVLSPAYYGMPGHTDTMIHEVGHVLGLYHVFKGVSERESCNDPCKETVPSMETGDLCADTAPTPKSELCREPEPTSDTCGFTRFPGAPFTNYMSYTDDNCTDNFTPNQVARMHCYLDLVYQQWTESRKPTPIPIPPMVIGQTNKSLTIHWLPPISGVVYDRASGSLCGACTEDGTFRQYVHTASSRRVCDSSGYWTPEEAVGPPDVDQPCEPSLQAWSPEVHLYHMNMTVPCPTEGCSLELLFQHPVQADTLTLWVTSFFMESSQVLFDTEILLENKESVHLGPLDTFCDIPLTIKLHVDGKVSGVKVYTFDERIEIDAALLTSQPHSPLCSGCRPVRYQVLRDPPFASGLPVVVTHSHRKFTDVEVTPGQMYQYQVLAEAGGELGEASPPLNHIHGAPYCGDGKVSERLGEECDDGDLVSGDGCSKVCELEEGFNCVGEPSLCYMYEGDGICEPFERKTSIVDCGIYTPKGYLDQWATRAYSSHEDKKKCPVSLVTGEPHSLICTSYHPDLPNHRPLTGWFPCVASENETQDDRSEQPEGSLKKEDEVWLKVCFNRPGEARAIFIFLTTDGLVPGEHQQPTVTLYLTDVRGSNHSLGTYGLSCQHNPLIINVTHHQNVLFHHTTSVLLNFSSPRVGISAVALRTSSRIGLSAPSNCISEDEGQNHQGQSCIHRPCGKQDSCPSLLLDHADVVNCTSIGPGLMKCAITCQRGFALQASSGQYIRPMQKEILLTCSSGHWDQNVSCLPVDCGVPDPSLVNYANFSCSEGTKFLKRCSISCVPPAKLQGLSPWLTCLEDGLWSLPEVYCKLECDAPPIILNANLLLPHCLQDNHDVGTICKYECKPGYYVAESAEGKVRNKLLKIQCLEGGIWEQGSCIPVVCEPPPPVFEGMYECTNGFSLDSQCVLNCNQEREKLPILCTKEGLWTQEFKLCENLQGECPPPPSELNSVEYKCEQGYGIGAVCSPLCVIPPSDPVMLPENITADTLEHWMEPVKVQSIVCTGRRQWHPDPVLVHCIQSCEPFQADGWCDTINNRAYCHYDGGDCCSSTLSSKKVIPFAADCDLDECTCRDPKAEENQ
B2: PAPP-A2(A1033V) (protein)
chain: PPEESNQNGGEGSYREAETFNSQVGLPILYFSGRRERLLLRPEVLAEIPREAFTVEAWVKPEGGQNNPAIIAGVFDNCSHTVSDKGWALGIRSGKDKGKRDARFFFSLCTDRVKKATILISHSRYQPGTWTHVAATYDGRHMALYVDGTQVASSLDQSGPLNSPFMASCRSLLLGGDSSEDGHYFRGHLGTLVFWSTALPQSHFQHSSQHSSGEEEATDLVLTASFEPVNTEWVPFRDEKYPRLEVLQGFEPEPEILSPLQPPLCGQTVCDNVELISQYNGYWPLRGEKVIRYQVVNICDDEGLNPIVSEEQIRLQHEALNEAFSRYNISWQLSVHQVHNSTLRHRVVLVNCEPSKIGNDHCDPECEHPLTGYDGGDCRLQGRCYSWNRRDGLCHVECNNMLNDFDDGDCCDPQVADVRKTCFDPDSPKRAYMSVKELKEALQLNSTHFLNIYFASSVREDLAGAATWPWDKDAVTHLGGIVLSPAYYGMPGHTDTMIHEVGHVLGLYHVFKGVSERESCNDPCKETVPSMETGDLCADTAPTPKSELCREPEPTSDTCGFTRFPGAPFTNYMSYTDDNCTDNFTPNQVARMHCYLDLVYQQWTESRKPTPIPIPPMVIGQTNKSLTIHWLPPISGVVYDRASGSLCGACTEDGTFRQYVHTASSRRVCDSSGYWTPEEAVGPPDVDQPCEPSLQAWSPEVHLYHMNMTVPCPTEGCSLELLFQHPVQADTLTLWVTSFFMESSQVLFDTEILLENKESVHLGPLDTFCDIPLTIKLHVDGKVSGVKVYTFDERIEIDVALLTSQPHSPLCSGCRPVRYQVLRDPPFASGLPVVVTHSHRKFTDVEVTPGQMYQYQVLAEAGGELGEASPPLNHIHGAPYCGDGKVSERLGEECDDGDLVSGDGCSKVCELEEGFNCVGEPSLCYMYEGDGICEPFERKTSIVDCGIYTPKGYLDQWATRAYSSHEDKKKCPVSLVTGEPHSLICTSYHPDLPNHRPLTGWFPCVASENETQDDRSEQPEGSLKKEDEVWLKVCFNRPGEARAIFIFLTTDGLVPGEHQQPTVTLYLTDVRGSNHSLGTYGLSCQHNPLIINVTHHQNVLFHHTTSVLLNFSSPRVGISAVALRTSSRIGLSAPSNCISEDEGQNHQGQSCIHRPCGKQDSCPSLLLDHADVVNCTSIGPGLMKCAITCQRGFALQASSGQYIRPMQKEILLTCSSGHWDQNVSCLPVDCGVPDPSLVNYANFSCSEGTKFLKRCSISCVPPAKLQGLSPWLTCLEDGLWSLPEVYCKLECDAPPIILNANLLLPHCLQDNHDVGTICKYECKPGYYVAESAEGKVRNKLLKIQCLEGGIWEQGSCIPVVCEPPPPVFEGMYECTNGFSLDSQCVLNCNQEREKLPILCTKEGLWTQEFKLCENLQGECPPPPSELNSVEYKCEQGYGIGAVCSPLCVIPPSDPVMLPENITADTLEHWMEPVKVQSIVCTGRRQWHPDPVLVHCIQSCEPFQADGWCDTINNRAYCHYDGGDCCSSTLSSKKVIPFAADCDLDECTCRDPKAEENQ

What was measured:
[1] = target: recombinant human IGFBP-3, 125I-labeled, P17936
[2] = target: T1, recombinant human IGFBP-4, …
[3] = target: recombinant human IGFBP-5, 125I-labeled, P24593
Chain of recombinant human IGFBP-5, 125I-labeled, P24593 (P24593 21-272): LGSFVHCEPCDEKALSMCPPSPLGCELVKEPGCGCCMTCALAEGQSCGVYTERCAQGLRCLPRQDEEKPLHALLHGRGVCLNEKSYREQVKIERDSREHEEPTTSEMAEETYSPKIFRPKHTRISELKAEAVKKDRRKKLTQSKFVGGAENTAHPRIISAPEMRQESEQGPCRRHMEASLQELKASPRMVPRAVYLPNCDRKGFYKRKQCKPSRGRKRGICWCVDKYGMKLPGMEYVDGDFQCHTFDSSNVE

Chain of recombinant human IGFBP-3, 125I-labeled, P17936 (P17936 28-291): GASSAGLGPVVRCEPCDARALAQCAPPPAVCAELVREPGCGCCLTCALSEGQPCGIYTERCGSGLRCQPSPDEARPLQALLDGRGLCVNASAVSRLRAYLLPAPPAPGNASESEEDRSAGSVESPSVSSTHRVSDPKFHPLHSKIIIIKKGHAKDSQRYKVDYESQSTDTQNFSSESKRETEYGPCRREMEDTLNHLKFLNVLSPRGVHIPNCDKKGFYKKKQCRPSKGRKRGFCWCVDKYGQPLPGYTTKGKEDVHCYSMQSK

| Protein | proteolytic cleavage of radiolabeled IGFBP (SDS-PAGE, autoradiography) [1] | proteolytic cleavage of radiolabeled IGFBP (SDS-PAGE, autoradiography) [2] | proteolytic cleavage of radiolabeled IGFBP (SDS-PAGE, autoradiography) [3] | proteolytic cleavage at equimolar concentrations of wild type and mutant (6 h reaction) [1] | proteolytic cleavage at equimolar concentrations of wild type and mutant (6 h reaction) [3] |
| --- | --- | --- | --- | --- | --- |
| B1 | media from cells transfected with WT PAPP-A2 cDNA completely cleaved these substrates | none of the variants cleaved the PAPP-A substrate, IGFBP-4 | media from cells transfected with WT PAPP-A2 cDNA completely cleaved these substrates |  |  |
| B2 | showed no proteolytic activity towards IGFBP-3 or -5 | none of the variants cleaved the PAPP-A substrate, IGFBP-4 | showed no proteolytic activity towards IGFBP-3 or -5 | at equimolar concentrations (FIG. 3C), it still showed no activity | at equimolar concentrations (FIG. 3C), it still showed no activity |
